Source: patent US9187525B2, “Methods of treating ophthalmic diseases using NPR-B agonists” (Shire Orphan Therapies GmbH, dated 2015)
Numbered stars: 1 amine (or outer) side, 2 acyl side, 3 side chain; on linkers, the order of the positions; unused ones are H or OH. Square brackets hold non-standard residues; d marks the D form. Ends that are not written are not given here. * marks the point of attachment. 2857‑Ac = 2-((2S,3R,4R,5R)-2,3,4,5,6-pentahydroxyhexylamino)acetic acid, O=C(CN(C[C@H](O)[C@@H](O)[C@H](O)[C@H](O)CO)[*:1])[*:2]; Eao = rac-1-amino-2,3-dihydro-1H-indene-1-carboxylic acid, O=C(C1(N[*:1])CCc2ccccc21)[*:2]; Sni = (S)-nipecotic acid, O=C([C@H]1CCCN([*:1])C1)[*:2]; Egg = 2-Amino-3-piperidin-4-yl-propionic acid; pT = C[C@@H](OP(=O)(O)O)[C@H](N)C(=O)O; Hyp = O=C(O)[C@@H]1C[C@@H](O)CN1; pS = N[C@@H](COP(=O)(O)O)C(=O)O; Aoc(2) = CCCCCC[C@H](N)C(=O)O; NMeL = CN[C@@H](CC(C)C)C(=O)O; Aic = NC1(C(=O)O)Cc2ccccc2C1; orn(Me2) = not defined here; NHexGly = CCCCCCNCC(=O)O; Octanoyl = CCCCCCCC(=O)*; 2137 = not defined here; dHgl = not defined here; Che = not defined here; Rni = not defined here; leu = not defined here; mpa = not defined here; opa = not defined here; ppa = not defined here; Occ = octanoic acid; Dha = C=C(N)C(=O)O

B1: JAL-1894 (peptide)
peptide: [Occ][Sni]F[orn(Me2)]L[Hyp][NMeL]SR[Che]
modifications: reading uncertain; also: printed as Occ-Sni-Phe-orn(Me2)-Leu-Hyp-Nml-Ser-Arg-Che
B2: JAL-1895 (peptide)
peptide: [Occ][Sni]F[orn(Me2)]L[Hyp][NMeL]TR[Che]
modifications: reading uncertain; also: printed as Occ-Sni-Phe-orn(Me2)-Leu-Hyp-Nml-Thr-Arg-Che
B3: JAL-1896 (peptide)
peptide: H-[Aoc(2)][Sni]FLL[Hyp][NMeL]DRI-NH2
modifications: not fully specified (residue 4); printed as H-Hgl-Sni-Phe-leu-Leu-Hyp-Nml-Asp-Arg-Ile-NH2
B4: JAL-1897 (peptide)
peptide: H-[dHgl][Sni]FLL[Hyp][NMeL]DRI-NH2
modifications: not fully specified (residue 4); printed as H-hgl-Sni-Phe-leu-Leu-Hyp-Nml-Asp-Arg-Ile-NH2; reading uncertain
B5: JAL-1898 (peptide)
peptide: H-K[Aoc(2)][Sni]FLL[Hyp][NMeL]DRI-NH2
modifications: not fully specified (residue 5); printed as H-Lys-Hgl-Sni-Phe-leu-Leu-Hyp-Nml-Asp-Arg-Ile-NH2
B6: JAL-1899 (peptide)
peptide: H-K[dHgl][Sni]FLL[Hyp][NMeL]DRI-NH2
modifications: not fully specified (residue 5); printed as H-Lys-hgl-Sni-Phe-leu-Leu-Hyp-Nml-Asp-Arg-Ile-NH2; reading uncertain
B7: JAL-1900 (peptide)
peptide: H-KP[Aoc(2)][Sni]FLL[Hyp][NMeL]DRI-NH2
modifications: not fully specified (residue 6); printed as H-Lys-Pro-Hgl-Sni-Phe-leu-Leu-Hyp-Nml-Asp-Arg-Ile-NH2
B8: JAL-1901 (peptide)
peptide: [2857‑Ac][Aoc(2)][Sni]FLL[Hyp][NMeL]DRI-NH2
modifications: not fully specified (residue 5); printed as (2857-Ac)-Hgl-Sni-Phe-leu-Leu-Hyp-Nml-Asp-Arg-Ile-NH2
B9: JAL-1907 (peptide)
peptide: [NHexGly][Sni]FLL[Hyp][NMeL]DRI-NH2
modifications: not fully specified (residue 4); printed as (1625-Ac)-Sni-Phe-leu-Leu-Hyp-Nml-Asp-Arg-Ile-NH2
B10: JAL-1912 (peptide)
peptide: Octanoyl-[Sni]FLL[Hyp][NMeL][pS]RI-NH2
modifications: not fully specified (some residues); printed as Occ-Sni-Phe-leu-Leu-Hyp-Nml-Pse-Arg-Ile-NH2
B11: JAL-0748 (peptide)
peptide: Octanoyl-[dA][dA]FGLKLDR[2137]
modifications: reading uncertain; also: printed as Occ-ala-ala-Phe-Gly-Leu-Lys-Leu-Asp-Arg-2137
B12: JAL-1913 (peptide)
peptide: [Occ][Sni]F[orn(Me2)]L[Hyp][NMeL][pT]RI-NH2
modifications: reading uncertain; also: printed as Occ-Sni-Phe-orn(Me2)-Leu-Hyp-Nml-Pth-Arg-Ile-NH2
B13: JAL-1916 (peptide)
peptide: [Occ][Sni]F[orn(Me2)]L[Hyp][NMeL][pS]R[Che]
modifications: reading uncertain; also: printed as Occ-Sni-Phe-orn(Me2)-Leu-Hyp-Nml-Pse-Arg-Che
B14: JAL-1917 (peptide)
peptide: Octanoyl-[Sni]FLL[Hyp][NMeL][pS]R[Che]
modifications: not fully specified (some residues); printed as Occ-Sni-Phe-leu-Leu-Hyp-Nml-Pse-Arg-Che; reading uncertain
B15: JAL-1918 (peptide)
peptide: [Occ][Sni]F[orn(Me2)]L[Hyp][NMeL][pT]R[Che]
modifications: reading uncertain; also: printed as Occ-Sni-Phe-orn(Me2)-Leu-Hyp-Nml-Pth-Arg-Che

Target: T1, natriuretic peptide receptor-B (human)
T1 chain: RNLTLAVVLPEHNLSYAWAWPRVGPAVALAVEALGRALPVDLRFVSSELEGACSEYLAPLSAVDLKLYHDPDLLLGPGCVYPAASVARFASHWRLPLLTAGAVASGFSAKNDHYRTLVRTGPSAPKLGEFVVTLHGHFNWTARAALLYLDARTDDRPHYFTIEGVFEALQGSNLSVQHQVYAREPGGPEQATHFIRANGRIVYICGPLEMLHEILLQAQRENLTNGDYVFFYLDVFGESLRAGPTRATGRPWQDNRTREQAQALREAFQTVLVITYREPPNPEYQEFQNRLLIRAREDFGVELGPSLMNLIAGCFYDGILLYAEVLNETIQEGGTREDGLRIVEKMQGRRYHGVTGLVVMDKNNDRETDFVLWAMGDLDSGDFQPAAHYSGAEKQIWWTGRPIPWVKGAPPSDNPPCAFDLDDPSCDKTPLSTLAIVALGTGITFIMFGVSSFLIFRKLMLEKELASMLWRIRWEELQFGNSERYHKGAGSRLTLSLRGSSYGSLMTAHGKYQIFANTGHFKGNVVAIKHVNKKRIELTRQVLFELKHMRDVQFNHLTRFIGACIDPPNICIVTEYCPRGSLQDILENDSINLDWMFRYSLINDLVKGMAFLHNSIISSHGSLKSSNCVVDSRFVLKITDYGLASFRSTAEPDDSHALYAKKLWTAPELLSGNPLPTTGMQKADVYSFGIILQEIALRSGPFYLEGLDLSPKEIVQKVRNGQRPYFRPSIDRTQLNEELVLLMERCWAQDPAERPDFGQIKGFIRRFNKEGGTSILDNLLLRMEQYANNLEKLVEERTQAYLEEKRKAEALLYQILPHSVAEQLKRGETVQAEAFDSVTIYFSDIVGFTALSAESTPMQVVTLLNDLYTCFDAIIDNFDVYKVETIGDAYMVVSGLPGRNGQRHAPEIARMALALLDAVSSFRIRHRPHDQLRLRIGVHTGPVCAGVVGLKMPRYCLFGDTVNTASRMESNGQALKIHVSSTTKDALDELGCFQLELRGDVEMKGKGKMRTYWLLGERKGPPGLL
Assay: cell-based or functional assay

[Occ][Sni]F[opa]L[Hyp][NMeL]DRI-NH2 (reading uncertain; also: printed as Occ-Sni-Phe-opa-Leu-Hyp-Nml-Asp-Arg-Ile-NH2) [JAL-1887] and [Occ][Sni]F[mpa]L[Hyp][NMeL]DRI-NH2 (reading uncertain; also: printed as Occ-Sni-Phe-mpa-Leu-Hyp-Nml-Asp-Arg-Ile-NH2) [JAL-1888] cannot be ordered by “EC50 group, cGMP in GTM-3 cells” value: no more than 5 µM for the first, no more than 5 µM for the second.

[Occ][Sni]F[ppa]L[Hyp][NMeL]DRI-NH2 (reading uncertain; also: printed as Occ-Sni-Phe-ppa-Leu-Hyp-Nml-Asp-Arg-Ile-NH2) [JAL-1889] and [Occ][Sni]F[Egg]L[Hyp][NMeL]DRI-NH2 [JAL-1890] cannot be ordered by “EC50 group, cGMP in GTM-3 cells” value: no more than 5 µM for the first, no more than 1 µM for the second.

[Occ][Sni]F[Eao]L[Hyp][NMeL]DRI-NH2 [JAL-1892] and [Occ][Sni]F[Aic]L[Hyp][NMeL]DRI-NH2 [JAL-1893] cannot be ordered by “EC50 group, cGMP in GTM-3 cells” value: no more than 5 µM for the first, no more than 5 µM for the second.

B1 and [Occ][Rni]FGLKLDRI-NH2 (reading uncertain; also: printed as Occ-Rni-Phe-Gly-Leu-Lys-Leu-Asp-Arg-Ile-NH2) [JAL-0744] cannot be ordered by “EC50 group, cGMP in GTM-3 cells” value: no more than 5 µM for the first, no more than 15 µM for the second.

B2 and B3 cannot be ordered by “EC50 group, cGMP in GTM-3 cells” value: no more than 1 µM for the first, no more than 5 µM for the second.

B4 and B5 cannot be ordered by “EC50 group, cGMP in GTM-3 cells” value: no more than 5 µM for the first, no more than 5 µM for the second.

B6 and B7 cannot be ordered by “EC50 group, cGMP in GTM-3 cells” value: no more than 5 µM for the first, no more than 1 µM for the second.

B8 and B9 cannot be ordered by “EC50 group, cGMP in GTM-3 cells” value: no more than 5 µM for the first, no more than 5 µM for the second.

B10 and B11 cannot be ordered by “EC50 group, cGMP in GTM-3 cells” value: no more than 15 µM for the first, no more than 15 µM for the second.

B12 and [Occ][Sni]F[Dha]L[Hyp][NMeL]DRI-NH2 [JAL-1915_2] cannot be ordered by “EC50 group, cGMP in GTM-3 cells” value: no more than 15 µM for the first, no more than 5 µM for the second.

B13 and B14 cannot be ordered by “EC50 group, cGMP in GTM-3 cells” value: no more than 15 µM for the first, no more than 15 µM for the second.

B15 and [Occ][Sni]F[leu]L[Hyp][NMeL][pT]R[Che] (reading uncertain; also: printed as Occ-Sni-Phe-leu-Leu-Hyp-Nml-Pth-Arg-Che) [JAL-1919] cannot be ordered by “EC50 group, cGMP in GTM-3 cells” value: no more than 5 µM for the first, no more than 5 µM for the second.

For [Occ][Sni]F[leu]L[Hyp][NMeL]SRI-NH2 (reading uncertain; also: printed as Occ-Sni-Phe-leu-Leu-Hyp-Nml-Ser-Arg-Ile-NH2) [JAL-1920], the “EC50 group, cGMP in GTM-3 cells” value was no more than 5 µM.
